Test results published in PMC4828686.
“And” between values parts separate entries of the source, which are not always exact repeats. Equal values may be shown once.

How the values were obtained:
[1] = biological target: GST-fused full-length kindlin-2 LK47/AA mutant (GST-K2LK47/AA) (human) (UniProt Q96AC1); test: pull-down
[2] = biological target: Actin, purified (rabbit skeletal muscle; Cytoskeleton, Inc.) (rabbit) (UniProt P68135); test: SPR
[3] = biological target: Actin, purified (rabbit skeletal muscle; Cytoskeleton, Inc.) (rabbit) (UniProt P68135); test: ELISA
[4] = biological target: Actin mutant that cannot polymerize (G-actin mimetic; Joel et al., 2004); test: SPR
[5] = biological target: Actin, purified (rabbit skeletal muscle; Cytoskeleton, Inc.) (rabbit) (UniProt P68135); test: co-sedimentation

Row | Kd [2] | percent of the added protein in the actin pellet [5] | Substance | other results
1 | 982 nM and 1580 nM | – | GST-fused full-length kindlin-2 LK47/AA mutant (GST-K2LK47/AA) (from UniProt Q96AC1 1-680) (natural protein) | fold difference of the relative Kd against WT K2 [3]: 3 fold and 5 fold
2 | 136 nM and 190 nM | – | GST-fused full-length kindlin-2 (GST-K2) (from UniProt Q96AC1 1-680) (natural protein) | Kd [4]: 124 nM

Continued, substance first:

Row | Substance | Kd [2] | percent of the added protein in the actin pellet [5] | other results
3 | Actin, purified (rabbit skeletal muscle; Cytoskeleton, Inc.) (from UniProt P68135 1-377) (natural protein) | – | – | mean percent less actin pulled down than by WT K2 [1]: 75%
4 | α-actinin (natural protein) | – | 52% | –
5 | Full-length kindlin-2 (K2), GST tag removed by Factor Xa (from UniProt Q96AC1 1-680) (natural protein) | – | 36% and 30% to 54% (2×) | –
